Patent US20110263454A1, “Methods of Identifying Functional Characteristics of Promoters, Transcription Modifying Proteins and Transcription Modulating Agents” (Salk Institute for Biological Studies, priority 2008, published 2011)

B1: NR4a3: NR4a3 (NR4A3; NOR1), nuclear hormone receptor cDNA driver (protein, UniProt Q92570 1-626, looked up)
Nuclear receptor subfamily 4 …: MPCVQAQYSPSPPGSSYAAQTYSSEYTTEIMNPDYTKLTMDLGSTEITATATTSLPSISTFVEGYSSNYELKPSCVYQMQRPLIKVEEGRAPSYHHHHHHHHHHHHHHQQQHQQPSIPPASSPEDEVLPSTSMYFKQSPPSTPTTPAFPPQAGALWDEALPSAPGCIAPGPLLDPPMKAVPTVAGARFPLFHFKPSPPHPPAPSPAGGHHLGYDPTAAAALSLPLGAAAAAGSQAAALESHPYGLPLAKRAAPLAFPPLGLTPSPTASSLLGESPSLPSPPSRSSSSGEGTCAVCGDNAACQHYGVRTCEGCKGFFKRTVQKNAKYVCLANKNCPVDKRRRNRCQYCRFQKCLSVGMVKEVVRTDSLKGRRGRLPSKPKSPLQQEPSQPSPPSPPICMMNALVRALTDSTPRDLDYSRYCPTDQAAAGTDAEHVQQFYNLLTASIDVSRSWAEKIPGFTDLPKEDQTLLIESAFLELFVLRLSIRSNTAEDKFVFCNGLVLHRLQCLRGFGEWLDSIKDFSLNLQSLNLDIQALACLSALSMITERHGLKEPKRVEELCNKITSSLKDHQSKGQALEPTESKVLGALVELRKICTLGLQRIFYLKLEDLVSPPSIIDKLFLDTLPF
B2: GCNF: Germ Cell Nuclear Factor (NR6A1, GCNF1), cDNA driver (protein, UniProt Q15406 1-480, looked up)
Nuclear receptor subfamily 6 …: MERDEPPPSGGGGGGGSAGFLEPPAALPPPPRNGFCQDELAELDPGTISVSDDRAEQRTCLICGDRATGLHYGIISCEGCKGFFKRSICNKRVYRCSRDKNCVMSRKQRNRCQYCRLLKCLQMGMNRKAIREDGMPGGRNKSIGPVQISEEEIERIMSGQEFEEEANHWSNHGDSDHSSPGNRASESNQPSPGSTLSSSRSVELNGFMAFREQYMGMSVPPHYQYIPHLFSYSGHSPLLPQQARSLDPQSYSLIHQLLSAEDLEPLGTPMLIEDGYAVTQAELFALLCRLADELLFRQIAWIKKLPFFCELSIKDYTCLLSSTWQELILLSSLTVYSKQIFGELADVTAKYSPSDEELHRFSDEGMEVIERLIYLYHKFHQLKVSNEEYACMKAINFLNQDIRGLTSASQLEQLNKRYWYICQDFTEYKYTHQPNRFPDLMMCLPEIRYIAGKMVNVPLEQLPLLFKVVLHSCKTSVGKE

Experiments:
RevErba promoter = assay: NHR-promoter luciferase screen, RevErba (RVRa) promoter; type: cell-based; set-up: key to mRevErba promoter reporter activity / Normalized Luc. act., normalized to control: luciferase activity normalized to lacZ and to control (no NHR/ligand); settings: for Luc. act., normalized to lacZ / Normalized Luc. act., normalized to control / negative reciprocal of normalized Luc. act. (fold repression; Table 33) / normalized Luc. act. on a logarithmic scale (column without head, Table 33): RVRa promoter; for Luc. act., normalized to lacZ / Normalized Luc. act., normalized to control: HR component without or with ligand; for negative reciprocal of normalized Luc. act. (fold repression; Table 33): given only where activity is below control; for normalized Luc. act. on a logarithmic scale (column without head, Table 33): log10 of activity normalized to control; for mRevErba promoter reporter activity: transcription factor +/- ligand, control = 1.00
Method in brief: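 Reporter readout: RevErbα promoter-driven luciferase, corrected for LacZ transfection efficiency and expressed relative to a no-receptor or no-ligand control. Receptors (V5H6-tagged, pcDNA3.1), alone or with RXR, plus any ligand, were expressed in CV-1 cells.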

mADRP promoter = assay: NHR-promoter luciferase screen, mADRP promoter; type: cell-based, mouse; settings: for Luc. act., normalized to lacZ / Normalized Luc. act., normalized to control: ADRP promoter, HR/ligand component; for mADRP promoter reporter activity: transcription factor +/- ligand, control = 1.00
Method in brief: (§1)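 CV-1 cells were co-transfected with 50 ng NHR (homodimer or NHR/RXR heterodimer), 100 ng promoter-luciferase construct and 50 ng LacZ. Luciferase was normalized to LacZ and to a no-NHR/no-ligand control.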

mPOMC promoter = assay: NHR-promoter luciferase screen, mPOMC promoter; type: cell-based, mouse; settings: for Results of assays of transcription factor (+/- ligand) with mPOMC: Table 6d, luciferase activity relative to control (control = 1.00); for Luc. act., normalized to lacZ / Normalized Luc. act., normalized to control: mPOMC promoter, HR component with or without ligand; for Normalized Luc. act., normalized to control: relative to control
Method in brief: as §1

mAdiponectin promoter = assay: NHR-promoter luciferase screen, mAdiponectin promoter; type: cell-based, mouse; settings: for Luc. act., normalized to lacZ / Normalized Luc. act., normalized to control: Adiponectin, HR component without or with its ligand; for mAdiponectin promoter reporter activity: transcription factor +/- ligand, control = 1.00
Method in brief: as §1

mAgrp promoter = assay: NHR-promoter luciferase screen, mAgrp promoter; type: cell-based, mouse; settings: for Results of assays of transcription factor (+/- ligand) with mAgrp: Table 6d, luciferase activity relative to control (control = 1.00); for Luc. act., normalized to lacZ / Normalized Luc. act., normalized to control: mAgrp promoter, HR component with or without ligand; for Normalized Luc. act., normalized to control: relative to control
Method in brief: as §1

Molecule	Luc. act., normalized to lacZ (RevErba promoter)	Normalized Luc. act., normalized to control (RevErba promoter)	negative reciprocal of normalized Luc. act. (fold repression; Table 33) (RevErba promoter)	normalized Luc. act. on a logarithmic scale (column without head, Table 33) (RevErba promoter)	mRevErba promoter reporter activity (RevErba promoter)	Luc. act., normalized to lacZ (mADRP promoter)	Normalized Luc. act., normalized to control (mADRP promoter)	mADRP promoter reporter activity (mADRP promoter)	Results of assays of transcription factor (+/- ligand) with mPOMC (mPOMC promoter)	Luc. act., normalized to lacZ (mPOMC promoter)	Normalized Luc. act., normalized to control (mPOMC promoter)	Luc. act., normalized to lacZ (mAdiponectin promoter)	Normalized Luc. act., normalized to control (mAdiponectin promoter)	mAdiponectin promoter reporter activity (mAdiponectin promoter)	Results of assays of transcription factor (+/- ligand) with mAgrp (mAgrp promoter)	Luc. act., normalized to lacZ (mAgrp promoter)	Normalized Luc. act., normalized to control (mAgrp promoter)
B1	14.7	0.5	−1.9	−0.28	0.53	351.6	0.7	0.71	0.87	59.7	0.9	35.7	0.6	0.57	0.88	34.7	0.9
B2	25.7	0.9	−1.087	−0.04	0.92	523.7	1.1	1.05	0.61	42.0	0.6	63.1	1.0	1.00	1.42	56.5	1.4
